In the Immune Epitope Database (IEDB) one finds IC50 data, which are given here for 20 sequences.

pIC50: −log10 of the molar value. Where only a bound is given, the exact number is not on record here.

For one test, the target named is HLA-A*02:01. The experiment in a line: IEDB peptide-MHC binding, purified MHC/competitive/radioactivity; ≥ and ≤ were set here for values at or beyond the usual limits of such assays. The note with it: source organism: Bordetella pertussis.
Turning to FVWYVDTVI, the pIC50 was 6.10.
In the case of GIGALKAGA, the negative-log IC50 (pIC50) is 4.16.
Regarding ILLENPAAE, the pIC50 was 4.73.
On the same count and under the same terms, under SLFAPHGNV stands 5.15; under VSSPPPVSV, 4.31.

The target of a further test is HLA-B*07:02. The description is as above. The note with it: source organism: Bordetella pertussis.
With QPLPPRPVA, the negative-log IC50 (pIC50) is 5.08.

Another test concerns the target HLA-B*35:01. Described as above. The note with it: source organism: Bordetella pertussis.
For EVAKVEVVP, the pIC50 was 4.16.
LPVSLTALD: the negative logarithm of the IC50 (pIC50) was 5.15.
For the sequence MDAKGGTLL, the pIC50 is 4.16.
With VPASGAPAA, the negative logarithm of the IC50 (pIC50) was 5.33.

Another test addresses HLA-B*44:03. The description is as above. The note with it: source organism: Bordetella pertussis.
Regarding PELGAAIRV, the pIC50 was 5.19.
As for TRQGIMDQY, the negative logarithm of the IC50 (pIC50) was 4.19.
As for TTEYPNARY, the negative logarithm of the IC50 (pIC50) was 4.20.

Another test addresses HLA-B*53:01. Described as above. The note with it: source organism: Bordetella pertussis.
Regarding AIRVGRGAR, the negative-log IC50 (pIC50) is 4.28.
Regarding AQQLKQADR, the pIC50 is 4.33.
For FVWYVDTVI, the pIC50 was 4.52.
As for LPLKANPMH, the pIC50 was at most 4.11.
On the same count and under the same terms, under LPVSLTALD stands 4.64; under TFEGKPALE, 4.34.
The same measure, in the same setting: under VVDGPPSRP stands 4.16.

The target in another test is HLA-B*57:01. The test is described as above. The conditions noted are these: source organism: Bordetella pertussis.
With DNEGKMESN, the negative-log IC50 (pIC50) is at most 4.15.
Take RGSAATFTL: the pIC50 is 4.97.
